Experimental data reported in patent US10100341B2, “Tailored oils produced from recombinant oleaginous microorganisms” (Corbion Biotech, Inc., priority 2011, dated 2018).

B1: Aat02-Amino acid transporter 02 promoter/5′UTR: putative nitrogen-regulated promoter/5′UTR, SEQ ID NO: 63 (nucleic acid, listed as Prototheca moriformis)
DNA: AGAGAGCGGAGGTGGGGTTGTGAGGTGGGGTTGCTGACCAGGAGCTCGCGTCGCCGAGCGCGACTCGCACACGGTCCAGTTACCCCCCCCTCCGCCCAAACGCAAGCCTCCCATCTTGATGCCTTTCCGGCCACCTATACTATTTCTTAGTTCGCTGTAACATCCAGACCGTCCTGAATAATAACAATGCCCTGTGTCAAGTGCATTCCTAAAAAAATTCTGTCCCAACCAACAATCCCACCTGAAATACCACCAGCCCTGCCCAGTACACTCTTCCAATACCATCTCCCTACCTCCACGCGCAAGCGACCCCCATGCGCGACCAGGCTCGAAAGTGATTTATGACTTGAGACGAGCGAGTGGCGGCGCGGTCGACTGCCTTTTCATCACGTGCCGTACGTCGGCGACCGCTAGGGCTTTGCACGGCAACGCACGGCTTCGCCAACCCGACCAGCCAGGACCTCGACTACTCTACCGCGAATTCGCCTCAAGAAGTCGCCAAATGTGCCATACACCATTCCTTACAGCACTGTTCAAACTTGATGCCAATTTTGACATTCGGGTTGCTCGTTGGCTGCGCCCACATCGGCCGTGAGTGCAGCAGGCGGGATCGGACACGGAGGACGCGGCGTCACGCCCCGAACGCAGCCCGTAACTCTACATCAACACGACGTGTTGCGTAATCCCGCCCGGCTGCGCATCGTGCCAACCCATTCGCGATGGATGGTCGGAAAATGGTGTGCCAACTGCCCTGAGGGAGGCTCTCGCGAAACGGGCACGTCCCTGAAACCGAAACTGTGGCCTTGTCGTCGGCCACGCAAGCACGTGGACCCTAAACACCAAGAAAATCAGTAAACAAGGTTGACATCCTCTACGGGCGAATTGTTTGCCCAACCCTTCATCGCACACTGCCATTATAATGCATCTAGCTCGGCGACAAGTTTAGAAAAGGCAGGCTGCATTGTTCCATTTCGCCGTGGCGGCGTGGGTGCCCATTTTACGAGGTTTGGGCTCCCGGGCAGCGACCGAGCCAGGTCGAGTCCCTCTCGCCCGTCGACAATGTTGCGAACCCCACAAGCGGCTAACAACAACTTGATGGTACCTGTACACTGCCAATTCCTTCTTCCCCGGCCGAGGTTTACACGTGATGGCCATGGCTTCGCATTCAGGCCGACTTCCCATTCCGACTTTCCAGAGGGTCCGCGGACGCTGGGGGTTGGCTGCCTGAGGCCCACCCTTTGTTCCCCGCGTCCCGACAAACACAATTGCGTTACATAAGGGGGAGCCGCCCCCGTTCAGAGTGCAGAAATCTTTCACTATATTTTCCAGTCGTCAGCGAAATCAAGT
B2: Aat03-Amino acid transporter 03 promoter/5′UTR: putative nitrogen-regulated promoter/5′UTR, SEQ ID NO: 64 (nucleic acid, listed as Prototheca moriformis)
DNA: GATGGTGGGGTGTCTGCCTTGGGCTGGGTGATGGAGGCTGGTGGTGCGCGGGTTTCCTGATGCATTCTATCTACGCAGTGTCATGGTGTCCATTCCACACACCAGTACACCCTTACACTAAGGATCCATCCCTCCTTCCCTCTTCAGGACTACATGGACCCCACGAGCTACCGACCGGGCTTTCTCAAAAACGTCAAGGTCATGTTTGACATGCGGGACGTGGTGGACGACGTGCAAGGTGCGTCCGGAGTGCGCGCAAATGAGCAAGTCGGGCAATGTGTCGGGGTGGGCACCGGGGCTGGAGATCCGCGATCCCCGAGAAAACGCCGTACCACCCCCCGCGCTATTCCCTCGATTGCGCGCAGATGTGGTGACCGACACGGGGGACAACCTGGCGGACATGGGGCGCCGGACCTGGAAGCACGCCAAGTCGCACACGGGGAGGCTCGTGCAGTCCCCCCCATCGTACCTCAAGGGTCTCTTTGGTCGCGATCCAAAGTACGCTGGTGGCATGGCATGCCCGAAATGAACATCATGTGTGATCTCCGATTGCCAATGGCCACCTCCACGGACCACCTTGCAGGCGGAAGCGCAATCCAGGGCCCGAGCCTGACGAGGACGGAGACTCCTCGTCCAGCGCGGGGTCCCCGACCCGACGCAGCAGCCGACCCCTGCTAACCCGGCAACGATCGGACCAGCAACCTTGCTGTAGTTCCGATCCGTGATGACGGGCATTGCCGCCGCTCGATCCGCTTTGATGACTGTCTATTATTTGCGCGGAGCCCCCTCGGAACCCTACCCCGCTCTTGCAAGCCCCTTGCATCGGAGATCCTCGTGCGCCCGCCATGACCCCACTGGATTGCCCAACATCCTTCTTTATCGTGTAAAATGTGATTCCTCGGCTGCAATCGACTGGCCTTCGCTTCTGGCCCCAAGAGGGCTCGAACGTGCGGCAGCGAGGGCGCTGACACACCCAAGCCCTAGGGCTTTCAACGTCGGCTGCCAGGCCGGATAGGGGGATCGCCTCCTTTCCACCACCCACCTACGAGGGATTCGAGTCGGCTTCCAGCTCAGCTATTCGGCCGCGCCCCCGGCCCTGCAGACGTCCTCCAGTTTCCGAACAGGTCGCTCTCAGAACACCTGCCGCGGCTGCGATACGGCAGGCTCTCAAAGCGTCGAC
B3: Aat05-Amino acid transporter 05 promoter/5′UTR: putative nitrogen-regulated promoter/5′UTR, SEQ ID NO: 66 (nucleic acid, listed as Prototheca moriformis)
DNA: CCGAGCAGTTCATGGCCAAGTACAAGGACTAGAGACCGGAGGTCGGTAGGCTGAATGGAGCTGGCGTCGTCGTGCGCGACGTGCACGCGATGCGATACTACGACCCCACAAACGCATGCCTCCCATCTTGATGCCTTTCCGGCCATTTATACTATTTCTCATTTCGCTGTAACATCTTGAATAATAGAATTGCCCTGTGTCAAGTGGATTCCAAGAAATATTCTGTCCCAACAAAACAACCCAACCTGAAAACAACCTCAAATACCACCAGCCCTGCCCACCTGCCCAGTACACTTTTCCAATACCATCTCCCTACCTTCACGCGCAAGCGGCACCCATGCGCGACCAGGCTCGAAAGGATTTCACGACTCAGGACGAGCGAGTGGCGGCGCGACCGCCTGCCTGTTCGTCACGTGCCGTACGTCGGCGACCGCTAGAGCTTTGCCTGGCAACCCCCGGCTTCGTCAACCCGGCCAGCCAGGATCTCGACCACTCTACCGCGAAATCGCCTCAAGAAGTCGCCAAAAGTGCCGTACACCATGCTTCGCAGCGCTGTTCAAACTTGATGCCAATCTTGACAATCAGGTTGCTCGTTGGCTGCGTCCACATCGGCCGTGATTGCAGCAGGCGGGGATCGGACACGGAGGACGCGGCGTCACGCCGCGAACGCAGCCCGTAACTCTACATCAACGCGATATGTTGCGTAATCCCGCCCGGCTGCGCATTGTGACAACCCATTCGCGATGGATGGTCGGAAAATGGTGTGCCAACTGCCCTGAGGGACTCTCTCGCGAAACGGGCACGTCCCTGTATCCGAAACTGTGGCATGGCCTTGTCGACCACGCAAGCACGTGGACCCTAACACCACGAAAATAAGTAAAAAAGGTTGACATCCTCTACGAGCGAATTGTTTGCTCGACCCTTCATCGCACACTGTCATTATAATGCATCTAGCTCGGCGACAAGTTTAAAAAAGGCAGGCTGCATTATTCCATTTTGCCGTGGCGGCATGGGTGCCCATTTTATGAGGTTTGGGCTCTTGGGCAGCGACCGAGCCAGGTTGAGTCCCTCTCGCCCGTCGACAACGTTCCAAAGCCCATAAGTGGCTAATAAACAACTTGATGGTACCTGTACACTGCCAGTTCCTTCTTCCCCGGCCGAGGTTTACACGTGATGGCCATGGCTTCGCGTTTCAGGCTGACTTCCCATTCCGACTTTCCAGAGGGTCCGCGGACGCCGGGGGTTGGCTGCGTGAGGCCCACCCCTTGTTCCCCGCGTCCCGACAAACACAATTGCGTTACATAAGGGGGAAGCCGCCCCCCGTTCAGAGTGCAAACATCTTTCATTATATTTTTCAGTCGTCAGCGAAATCAAGTATGTCGCTGACAGGCATGAAGGCC
B4: NRAMP metal transporter promoter/5′UTR: putative nitrogen-regulated promoter/5′UTR, SEQ ID NO: 56 (nucleic acid, listed as Prototheca moriformis)
DNA: ACTAATTGCAATCGTGCAGTAATCATCGATATGGTCACAAGTAGATCCCCTACTGACACCCTCTCGTACATGTAGGCAATGTCATCGGCGCCGTCCTGCTGACCGATGCCGACGTAGCAGAGCAGACCCGGGCCGATCTGGGATACGAGCCGGCCCTCCACCTGCGCTCGAGGTGGAATCAAGTAAATAACCAATACACTTTTCGACACCACACAGAGTTGCACGGACGGTGGCGTACCTCTACGCTCGCGCTCTTCACGCGCTGGACGACCGCACGCATGAGCCCGGGTGGCTTGGTCTGGGCTGCAAAAATGCACAACAAACAAGTATCAGACGCTCATGGATGCACACGCGCTCCCAAGCACGCTCAGACTAAATATTACAGTAGCTCGTATCTGATAAGATATCGAGACATACCGCTCAACTCACCCGCAAACTGCGCCCCGCCAGGTGATGCGCACAGGGCCCCACCATGCGATCCATCGCATCGCTCCTCGAGGGCGCTATCACGTGGCCGGAGAGCGTTCACAGCGTACGCCACTGTATCTGGGCGGTATGCGGTCCGTCAACATGGAGACAGATACCCGCACCACCACCTTGCAAGCTCTTCCATATTGGAAGTAGAAAATTGTAATTGTATCATCGCACGAGGGGCCAACTTGCCGTCGGCGAGCTGGGCGACGAACACCACCTGGACGTTGTCGAGACTCGCTCGTGCCGTGCGCCGGGCCGCTGGGTATCCAGACCGTCGCC

These molecules were tested on Prototheca moriformis (UTEX 1435) (assay: cDNA abundance by real-time RT-PCR under nitrogen depletion). Details: after 24 hours of culture in low nitrogen medium.
Format: cell-based
Method: A cDNA library was generated from Prototheca moriformis (UTEX 1435) using standard techniques. The Prototheca moriformis cells were grown for 48 hours under nitrogen replete conditions. […] After about 24 hours in culture, the nitrogen supply in the media was completely depleted. The collected samples were immediately frozen using dry ice and isopropanol. Total RNA was subsequently isolated from the frozen cell pellet samples and a portion from each sample was held in reserve for RT-PCR studies. The rest of the total RNA harvested from the samples was subjected to polyA selection. Equimolar amounts of polyA selected RNA from each condition was then pooled and used to generate a cDNA library in vector pcDNA 3.0 (Invitrogen). Roughly 1200 clones were randomly picked from the resulting pooled cDNA library and subjected to sequencing on both strands. Approximately 68 different cDNAs were selected from among these 1200 sequences and used to design cDNA-specific primers for use in real-time RT-PCR studies. RNA isolated from the cell pellet samples that were held in reserve was used as substrate in the real time RT-PCR studies using the cDNA-specific primer sets generated above. This reserved RNA was converted into cDNA and used as substrate for RT-PCR for each of the 68 gene specific primer sets. […] As discussed in the specification, nitrogen depletion/limitation is a known inducer of lipogenesis in oleaginous microorganisms. Fold increase refers to the fold increase in cDNA abundance after 24 hours of culture in low nitrogen medium.

Compared with B1, B2 is higher in “Fold increased (cDNA abundance)” value: 6.5 for the first, 7.87 for the second.

Compared with B3, B4 is higher in “Fold increased (cDNA abundance)” value: 6.71 for the first, 9.65 for the second.
